Measurements published in patent US20130236473A1, “THERAPEUTIC AGENTS AND PROPHYLACTIC AGENTS FOR SYMPTOMS ACCOMPANYING AUTOIMMUNE DISEASES, INFLAMMATORY DISEASES, ALLERGY DISEASES AND ORGAN TRANSPLANTS” (OSAKA UNIVERSITY, priority 2010, published 2013).

B1: HB-EGF protein: human HB-EGF protein (R&D Systems, Inc.), ligand of ErbB1 protein (protein)
chain: DLQEADLDLLRVTLSSKPQALATPNKEEHGKRKKKGKGLGKKRDPCLRKYKDFCIHGECKYVKELRAPSCICHPGYHGERCHGLSL
B2: FGF7 protein: mouse FGF7 protein (R&D Systems, Inc.), not a ligand of ErbB1 protein (protein, UniProt P36363 32-194, looked up)
Fibroblast growth factor 7: CNDMSPEQTATSVNCSSPERHTRSYDYMEGGDIRVRRLFCRTQWYLRIDKRGKVKGTQEMKNSYNIMEIRTVAVGIVAIKGVESEYYLAMNKEGKLYAKKECNEDCNFKELILENHYNTYASAKWTHSGGEMFVALNQKGIPVKGKKTKKEQKTAHFLPMAIT

Test system: IL-6 amplifier
Test: Reference Example 3: effect of growth factors on mIL-6 protein production in BC-1 cells (ELISA)
Type: cell-based, mouse
Conditions: 24 hours, hIL-6/6R and mIL-17A each 50 ng/ml, growth factor added, versus none added
Protocol: 2×10^5 mouse BC-1 cells were cultured for 24 hours in an RPMI 1640 medium containing hIL-6/6R proteins each at 50 ng/ml and mIL-17A protein at 50 ng/ml under the condition in which 100 ng/ml of mouse EGF protein (R&D Systems, Inc.), 100 ng/ml of human HB-EGF protein (R&D Systems, Inc.), 0.1, 1, 10, or 100 ng/ml of mouse epiregulin protein (R&D Systems, Inc.), 50 ng/ml of mouse VEGF protein (R&D Systems, Inc.), 50 ng/ml of mouse FGF7 protein (R&D Systems, Inc.), or 300 ng/ml of mPDGF-CC protein (R&D Systems, Inc.) was separately added. Mouse BC-1 cells cultured under the condition in which only hIL-6/6R proteins and mIL-17A protein were added served as a control group.
After the culture, the production amount of mIL-6 protein under each condition was quantified by an ELISA method in the same manner as in Reference Example 1. FIGS. 5 and 6 show the results.

Row | Molecule | production amount of mIL-6 protein
1 | B1 | significantly (p value <0.01) increased
2 | B2 | no significant difference
